The target in test [1] is 185 kD c-erbB-2 protein from SKBR3 cell lysates (human, UniProt P04626). The test is described as follows: immunoprecipitation from SKBR3 extract, blot detected with antiserum 21N.
The target of test [2] is T1, human c-erbB-2 protein (human, UniProt P04626). The test is described as follows: immunofluorescent staining of fixed HC11 cells transfected with human c-erbB-2 (clone R1#11), non-transfected HC11 as control; screen of hybridoma supernatants.
In test [3] the target is T1, human c-erbB-2 protein. The test is described as follows: flow cytometry on SKBR3 cells. On the technique in general: In flow cytometry, cells or beads pass a laser one at a time.

B1: mouse monoclonal antibody FRP5 (antibody, V domains shown)
VH: QVQLQQSGPELKKPGETVKISCKASGYPFTNYGMNWVKQAPGQGLKWMGWINTSTGESTFADDFKGRFDFSLETSANTAYLQINNLKSEDMATYFCARWEVYHGYVPYWGQGTTVTVSS
VL: DIQLTQSHKFLSTSVGDRVSITCKASQDVYNAVAWYQQKPGQSPKLLIYSASSRYTGVPSRFTGSGSGPDFTFTISSVQAEDLAVYFCQQHFRTPFTFGSGTKLEI
Consider B1, for which the binding result (in test [1]; in the test with human c-erbB-2 protein [2]) was “binds” in each case.

B2: mouse monoclonal antibody FWP51 (antibody, V domains shown)
VH: QVQLQQSGAELVRPGTSVKLSCKASDYTFTSYWMNWVKQRPGQGLEWIGMIDPSDSETQYNQMFKDKAALTVDKSSNTAYMQLSSLTSEDSAVYYCAKGGASGDWYFDVWGQGTTVTVSS
VL: DIQLTQSPSSLSASLGGEVTITCKASQDIKKYIAWYQHKPGKSPRLLIHYTSVLQPGIPSRFSGSGSGRDYSFSIHNLEPEDIATYYCLHYDYLYTFGGGTKLEI
B2: the binding result (in the test with human c-erbB-2 protein [3]; in test [1]) was “binds” each time.

The values are drawn from patent US5571894, “Recombinant antibodies specific for a growth factor receptor” (Ciba-Geigy Corporation, dated 1996).
